From patent publication US8148141 (HIPEP LABORATORIES, dated 2012)
Ends that are not written are not given here. carboxyfluorescein = carboxyfluorescein (fluorescent group); ethyldansyl = not defined here

How the values were obtained:
[1] = molecular target: T1, calmodulin (Homo sapiens (Human), UniProt P0DP23 2-149); assay: fluorescence of immobilized labeled peptide on glass chip, ex 340 nm / em 480 nm, plate reader, 1.0 uM calmodulin, 25 C, 5 min
[2] = molecular target: T1, calmodulin; assay: fluorescence of immobilized labeled peptide on glass chip, ex 490 nm / em 520 nm, calmodulin solution, 25 C, 5 min

Row | Binder | increase of the fluorescence intensity (fold) [1] [times] | increase of the fluorescence intensity (fold) [2] [times]
1 | CE(ethyldansyl)LKKLLKLLKKLLKLK(dabsyl)-NH2 (reading uncertain; also: printed as Cys-Glu(Rf1)-Leu-Lys-Lys-Leu-Leu-Lys-Leu-Leu-Lys-Lys-Leu-Leu-Lys-Leu-Lys(Rf2)-NH2, Chemically synthesized designed peptide; Immobilized on a glass substrate in the assay; also called alpha-helix peptide with ethyldansyl-dabsyl labels, N-terminal Cys anchor) [Cys-Glu(Rf1)-Leu-Lys-Lys-Leu-Leu-Lys-Leu-Leu-Lys-Lys-Leu-Leu-Lys-Leu-Lys(Rf2)-NH2] | ~5 | –
2 | K(carboxyfluorescein)LKKLLKLLKKLLKLC-NH2 (also called peptide containing carboxyfluorescein) [Lys(Rf3)-Leu-Lys-Lys-Leu-Leu-Lys-Leu-Leu-Lys-Lys-Leu-Leu-Lys-Leu-Cys-NH2] | – | ~10
3 | E(ethyldansyl)LKKLLKLLKKLLKLK(dabsyl)C-NH2 (reading uncertain; also: printed as Glu(Rf1)-Leu-Lys-Lys-Leu-Leu-Lys-Leu-Leu-Lys-Lys-Leu-Leu-Lys-Leu-Lys(Rf2)-Cys-NH2, Chemically synthesized designed peptide; Immobilized on a glass substrate in the assay; also called alpha-helix peptide with ethyldansyl-dabsyl labels, C-terminal Cys anchor) [Glu(Rf1)-Leu-Lys-Lys-Leu-Leu-Lys-Leu-Leu-Lys-Lys-Leu-Leu-Lys-Leu-Lys(Rf2)-Cys-NH2] | ~5 | –
